We go through one substance from paper PMC3225178.

For the assay, the target named is SmLip residues 27-176 (mature Lip minus signal peptide) fused to T18 (pSC072) or to T25 (pSC080) (Serratia marcescens). Description: two-hybrid.

“SmLip residues 27-176 (mature Lip minus signal peptide) fused to T18 (pSC072) or to T25 (pSC080) (domain or fragment)” gave a β-galactosidase activity (two-hybrid output) of more than 5000 Miller units.
